Where a chain is given by its changes, count along the chain named. Names and notes keep the numbering of the source. Marks after values point to notes of the source that are not given here.
B1: Wild-type BM-3: wild-type cytochrome P450 BM-3 from Bacillus megaterium, SEQ ID NO:1 (protein, listed as Bacillus megaterium)
chain: TIKEMPQPKTFGELKNLPLLNTDKPVQALMKIADELGEIFKFEAPGRVTRYLSSQRLIKEACDESRFDKNLSQALKFVRDFAGDGLFTSWTHEKNWKKAHNILLPSFSQQAMKGYHAMMVDIAVQLVQKWERLNADEHIEVPEDMTRLTLDTIGLCGFNYRFNSFYRDQPHPFITSMVRALDEAMNKLQRANPDDPAYDENKRQFQEDIKVMNDLVDKIIADRKASGEQSDDLLTHMLNGKDPETGEPLDDENIRYQIITFLIAGHETTSGLLSFALYFLVKNPHVLQKAAEEAARVLVDPVPSYKQVKQLKYVGMVLNEALRLWPTAPAFSLYAKEDTVLGGEYPLEKGDELMVLIPQLHRDKTIWGDDVEEFRPERFENPSAIPQHAFKPFGNGQRACIGQQFALHEATLVLGMMLKHFDFEDHTNYELDIKETLTLKPEGFVVKAKSKKIPLGGIPSPSTEQSAKKVRKKAENAHNTPLLVLYGSNMGTAEGTARDLADIAMSKGFAPQVATLDSHAGNLPREGAVLIVTASYNGHPPDNAKQFVDWLDQASADEVKGVRYSVFGCGDKNWATTYQKVPAFIDETLAAKGAENIADRGEADASDDFEGTYEEWREHMWSDVAAYFNLDIENSEDNKSTLSLQFVDSAADMPLAKMHGAFSTNVVASKELQQPGSARSTRHLEIELPKEASYQEGDHLGVIPRNYEGIVNRVTARFGLDASQQIRLEAEEEKLAHLPLAKTVSVEELLQYVELQDPVTRTQLRAMAAKTVCPPHKVELEALLEKQAYKEQVLAKRLTMLELLEKYPACEMKFSEFIALLPSIRPRYYSISSSPRVDEKQASITVSVVSGEAWSGYGEYKGIASNYLAELQEGDTITCFISTPQSEFTLPKDPETPLIMVGPGTGVAPFRGFVQARKQLKEQGQSLGEAHLYFGCRSPHEDYLYQEELENAQSEGIITLHTAFSRMPNQPKTYVQHVMEQDGKKLIELLDQGAHFYICGDGSQMAPAVEATLMKSYADVHQVSEADARLWLQQLEEKGRYAKDVWAG
B2: 35-E11: P450 BM-3 variant, SEQ ID NO:7: 53-5H substitutions plus E464G and I710T (protein)
chain: TIKEMPQPKTFGELKNLPLLNTDKPVQALMKIADELGEIFKFEAPGCVTRYLSSQRLIKEACDESRFDKNLSQALKFFRDFSGDGLFTSWTHEINWKKAHNILLPSFSQQAMKGYHAMMVDIAVQLVQKWERLNADEHIEVSEDMTRLTLDTIGLCGFNYRFNSFYRDQPHPFIISMVRALDEVMNKLQRANPDDPAYDENKRQCQEDIKVMNDLVDKIIADRKARGEQSDDLLTQMLNGKDPETGEPLDDGNISYQIITFLIAGHETTSGLLSFALYFLVKNPHVLQKVVEEAARVLVDPVPSYKQVKQLKYVGMVLNEALRLWPTFPAFSLYAKEDTVLGGEYPLEKGDEVMVLIPQLHRDKTIWGDDVEEFRPERFENPSAIPQHAFKPFGNGQRACIGQQFALHEATLVLGMMLKHFDFEDHTNYELDIKETLTLKPEGFVVKAKSKKIPLGGIPSPSTGQSAKKVRKKAENAHNTPLLVLYGSNMGTAEGTARDLADIAMSKGFAPQVATLDSHAGNLPREGAVLIVTASYNGHPPDNAKQFVDWLDQASADEVKGVRYSVFGCGDKNWATTYQKVPAFIDETLAAKGAENIADRGEADASDDFEGTYEEWREHMWSDVAAYFNLDIENSEDNKSTLSLQFVDSAADMPLAKMHGAFSTNVVASKELQQPGSARSTRHLEIELPKEASYQEGDHLGVIPRNYEGTVNRVTARFGLDASQQIRLEAEEEKLAHLPLAKTVSVEELLQYVELQDPVTRTQLRAMAAKTVCPPHKVELEALLEKQAYKEQVLAKRLTMLELLEKYPACEMKFSEFIALLPSIRPRYYSISSSPRVDEKQASITVSVVSGEAWSGYGEYKGIASNYLAELQEGDTITCFISTPQSEFTLPKDPETPLIMVGPGTGVAPFRGFVQARKQLKEQGQSLGEAHLYFGCRSPHEDYLYQEELENAQSEGIITLHTAFSRMPNQPKTYVQHVMEQDGKKLIELLDQGAHFYICGDGSQMAPAVEATLMKSYADVHQVSEADARLWLQQLEEKGRYAKDVWAG
modifications: mutant P450 35-E11 protein sequence
B3: 20-D3: P450 BM-3 variant, SEQ ID NO:11; 35-E11 plus H285R (protein)
chain: B2 chain with H285R
modifications: mutant P450 20-D3 protein sequence
notes: 35-E11 plus H285R
B4: P450PMO: P450 BM-3 variant, SEQ ID NO:125; 7-7 plus G443A and D698G; propane monooxygenase (protein)
chain: B2 chain with L52I, A74E, S82G, L188P, I366V, G443A, D698G
modifications: Mutant P450PMO protein sequence
notes: 7-7 plus G443A and D698G; propane monooxygenase

How the values were obtained:
[1] = myristate; cited from earlier work
[2] = High-throughput dimethyl ether (DME) screen; assay type: biochemical; settings: relative to 35-E11; normalized to P450 concentration
Experimental: Cell lysates for high throughput screening were prepared as described previously (Peters et al., J. Am. Chem. Soc. 125:13442 (2003); incorporated by reference herein). High-throughput dimethyl ether (DME) screens were performed in 96 well plates as described previously. Improved mutants were selected based on an increased signal compared to 9-10A (for the saturation mutagenesis libraries) and 1-12G (for the recombination library). Reactions on octane and propane were analyzed by gas chromatography as described.
Libraries of mutants of 35-E11 were screened for phenotypes indicative of either increased product formation on small gaseous substrates slightly larger than methane. Additionally, they were screened for increased coupling of the consumption of NADPH reducing equivalents to product formation. Product formation was determined by measuring total amount of dimethyl ether hydroxylation while increased coupling was determined primarily by decreased background NADPH consumption rates (measured spectrophotometrically at 340 nm in the absence of substrate).
The relative dimethyl ether (DME) activity was measured, 1 hour after treatment with Purpald, as the average net and absorbance at 550 nm from 8 microtitre plate DME reactions of the mutant compared to 8 equivalent reactions of 35-E11. All values were normalized by measuring the P450 concentration in each well with CO binding. “Asteriks” indicate criteria used to select mutants from libraries for further characterization. The oxidation rate is measured as absorbance change at 340 nm over 1 minute upon the addition of NADPH to 8 microtitre plate wells containing P450-containing cell lysate and compared to 8 equivalent reactions of 35-E11. All values were normalized by measuring the P450 concentration in each well with CO binding. The total turnover number (TTN) was measured as the absorbance at 550 nm of methane reactions with each mutant after treatment with alcohol oxidase and
Screening libraries by spectroscopically monitoring NADPH consumption rates in the presence of the alkane often selects for mutants with NADPH oxidation rates highly uncoupled to product formation. This can be overcome through the use of surrogate substrates that mimic desired substrates, yet yield species when hydroxylated that are easily detected either directly or with the addition of a dye. For example, the screen for the high-throughput identification of mutant BM-3 enzymes with activity towards propane as described previously uses dimethyl ether (DME) as a propane surrogate substrate. Upon hydroxylation, it decomposes into methanol and dye-sensitive formaldehyde. In addition, hexyl methyl ether (HME) may be used as a surrogate for octane. It shares most of the physical properties of octane, including solubility in buffer, size, shape, and strength of its C—H bonds. When HME is hydroxylated at its methoxy carbon, it also produces an equivalent of formaldehyde which is visually detected at concentrations as low as 10 μM with the dye Purpald (see FIG. 25). Hexanal, the aldehyde product formed when the α-carbon of the hexyl group is hydroxylated, is practically unreactive towards Purpald at some concentrations used in the present screens. Formaldehyde is approximately 42 times more sensitive to Purpald than hexanal (see FIG. 26). This disproportionate response makes HME, in contrast to the symmetric ether DME, a regio-selective screen for terminal alkane hydroxylation.
High-throughput screening. Single colonies were picked and inoculated by a Qpix robot (Genetix, Beaverton, OR) into 1-mL, deep-well plates containing LB (Amp*) medium (400 μL). The plates were incubated at 30° C., 250 rpm, and 80% relative humidity. After 24 h, 50 μL from this pre-culture were used to inoculate a 2-mL, deep-well plates containing […] TB (Amp^+) medium per well. Cultures were grown at 37° C., 220 rpm, and 80% relative humidity. […]

[3] = Kinetic measurements (Michaelis-Menten): propane; assay type: biochemical; settings: N.a. = not active
Experimental: Rate measurements. Initial rates of product formation were determined at 25° C. in 100 mM KPi pH 8.0 buffer using purified protein (100 nM) and a substrate concentration of 1.6 mM. In a 5 mL-vial, 20 μL of alkane solution (in ethanol) were dissolved in 400 μL KPi buffer, to which 500 μL enzyme solution at 100-200 nM was added. Reaction was initiated by adding 100 μL of 5 mM NADPH solution, followed by stirring at 300 rpm for 1 minute, and quenched by adding 200 μL chloroform and stirring at 800 rpm for 10 sec. Solutions were transferred to an Eppendorf tube, to which internal standard (10 μL 25 mM 1-bromohexane in ethanol) was added. Tubes were vortexed for 10 sec and centrifuged for 30 sec at 10,000 g. Organic phase was removed and analyzed by GC. For propane, reactions were carried out in a 5 mL-scale using 100-400 nM purified enzyme, propane-saturated buffer (propane concentration≈1.6 mM) and a final NADPH concentration of 500 μM. Reactions were stopped by addition of 200 μL H2SO4 conc. and analyzed by derivatization to alkyl nitrites followed by GC-ECD analysis as described below.
Kinetic measurements. […] Reactions were carried out in a 5 mL-scale using 100-400 nM purified enzyme and a final NADPH concentration of 1 mM. After 30 seconds, reactions were stopped by addition of 200 μL H2SO4 conc. and analyzed by GC as described below. Propane leakage during the experiment was neglected in reason of short measuring time. All measurements were performed in triplicate. Kinetic parameters were estimated from least-squares nonlinear regression to the Michaelis-Menten equation,
[formula] where v is the initial velocity, S is the substrate concentration, Vmax is the maximum velocity, and Km is the apparent Michaelis constant for the substrate.
Products from alkane reactions were identified and quantified by gas chromatography using authentic standards and calibration curves with internal standards. For the reactions with alkanes from pentane to decane, GC analyses were carried out using a Shimadzu GC-17A gas chromatograph, Agilent HP5 column (30 m×0.32 mm×0.1 μm film), 1 μL injection, FID detector, and the following separation program: 250° C. inlet, 250° C. detector, 50° C. oven for 3 min, 5° C./min gradient to 100° C., 25° C./min gradient to 230° C., and 230° C. for 3 min. For butane and propane (TTN) reactions, GC analyses were carried out using a Hewlett-Packard 5890 Series II Plus gas chromatograph, Supelco SPB-1 column (60 m×0.52 mm×0.5 μm film), 0.5 μL injection, FID detector, and the following separation program: 250° C. inlet, 275° C. detector, 80° C. oven for 2 min, 10° C./min gradient to 110° C., 25° C./min gradient to 275° C., and 275° C. for 2.5 min. […] Organic solutions were analyzed by FID-GC.

Molecule | Coupling efficiency [1] | Relative DME activity in screen [2] | Km [3] | kcat [3]
B1 | 88% | – | – | –
B2 | – | 1 | 820 ± 95 µM | 4.08 ± 0.417 s⁻¹
B3 | – | 1.7* | – | –
B4 | – | – | 170 µM | 3.08 ± 0.583 s⁻¹

From patent publication US12258605B2, “Alkane oxidation by modified hydroxylases” (The California Institute of Technology, priority 2005, dated 2025)
